US8785391B2, “Compound and method for treatment of alzheimer's disease and familial dementia” (Alphabeta AB, priority 2010, dated 2014)
Where two headings read alike, the source gives them in different places.

What was measured:
Type in all cases: biochemical
Aβ1-42 = target: T1, Aβ1-42 (Homo sapiens, UniProt P05067); test: ThT aggregation kinetics of Aβ1-42 (Example 4)
T1 construct: made in house; host or cells: E. coli
Text: Aβ1-40 (SEQ ID NO: 11) and Aβ1-42 (SEQ ID NO: 12) were expressed in E. coli from synthetic genes and purified in batch format using ion exchange and size exclusion steps as described in Walsh et al., FEBS J. 2009, 276, 1266-1281, which results in highly pure monomeric peptide. Purified peptide was divided into 20-30 identical aliquots and frozen. Monomer was then isolated by gel filtration of an aliquot of purified peptide just prior to setting up each of the experiments listed below to remove traces of aggregate formed during freezing and thawing and to exchange buffer to the one used in the respective experiment. Monomer was collected in low-bind Ep-tubes ([…]) on ice, and the concentration was determined by absorbance or amino acid analysis after acid hydrolysis. The monomer was used as is or diluted to the desired concentration for the respective experiment. Bri2(90-236) (SEQ ID NO: 2) was expressed and purified as described in Example 1. Aggregation kinetics were studied by recording the Thioflavin T (ThT) fluorescence intensity as a function of time in a plate reader (FluoStar Omega from BMG Labtech, Offenberg, Germany). The fluorescence was recorded using bottom optics in half-area 96-well PEG-coated black polystyrene plates with clear bottom (Corning 3881) using 440 nm excitation filter and 480 nm emission filter. Aβ monomer was isolated by gel filtration as above in 20 mM Na-phosphate, 200 μM EDTA, 0.02% NaN3 (at pH 7.4 in the case of Aβ1-40 and at pH 8.0 for Aβ1-42) and diluted to 6 or 8 μM in the case of Aβ1-40 and 3 μM in the case of Aβ1-42 in the same buffer and supplemented with 20 μM ThT from a 2 mM stock. To each well in the 96-well plate was first added either 10 μl buffer (20 mM Tris/HCl pH 7.4) or 10 μl of Bri2(90-236) protein or control protein at ten times the desired final concentration in 20 mM Tris/HCl pH 7.4. To each well was then added 90 μl of the ice-cold Aβ monomer solution, and the plate was immediately placed in the plate reader at 37° C., with fluorescence read every 6 minutes with continuous shaking at 100 rpm between readings. […]

Aβ1-40 [1] = target: T2, Aβ1-40 (Homo sapiens, UniProt P05067); test: ThT aggregation of Aβ1-40, Bri2(90-236) added at different time points
T2 construct: made in house; host or cells: E. coli
T2 sequence (P05067 672-711): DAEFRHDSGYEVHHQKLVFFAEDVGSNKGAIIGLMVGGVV
Description: Aggregation of 8 μM Aβ1-40 was monitored by recording the ThT fluorescence intensity as a function of time in 20 mM Na-phosphate, 200 μM EDTA, 20 μM ThT, 0.02% NaN3, 37° C. with 100 rpm shaking. 800 nM Bri2(90-236) was added from a concentrated stock before the start of the experiment or at different time points after starting the experiment ranging from 0.3 to 11.2 hours.

Aβ1-40 [2] = target: T2, Aβ1-40
Text: Aβ1-40 (SEQ ID NO: 11) and Aβ1-42 (SEQ ID NO: 12) were expressed in E. coli from synthetic genes and purified in batch format using ion exchange and size exclusion steps as described in Walsh et al., FEBS J. 2009, 276, 1266-1281, which results in highly pure monomeric peptide. Purified peptide was divided into 20-30 identical aliquots and frozen. Monomer was then isolated by gel filtration of an aliquot of purified peptide just prior to setting up each of the experiments listed below to remove traces of aggregate formed during freezing and thawing and to exchange buffer to the one used in the respective experiment. Monomer was collected in low-bind Ep-tubes ([…]) on ice, and the concentration was determined by absorbance or amino acid analysis after acid hydrolysis. The monomer was used as is or diluted to the desired concentration for the respective experiment. Bri2(90-236) (SEQ ID NO: 2) was expressed and purified as described in Example 1. Aggregation kinetics were studied by recording the Thioflavin T (ThT) fluorescence intensity as a function of time in a plate reader (FluoStar Omega from BMG Labtech, Offenberg, Germany). The fluorescence was recorded using bottom optics in half-area 96-well PEG-coated black polystyrene plates with clear bottom (Corning 3881) using 440 nm excitation filter and 480 nm emission filter. Aβ monomer was isolated by gel filtration as above in 20 mM Na-phosphate, 200 μM EDTA, 0.02% NaN3 (at pH 7.4 in the case of Aβ1-40 and at pH 8.0 for Aβ1-42) and diluted to 6 or 8 μM in the case of Aβ1-40 and 3 μM in the case of Aβ1-42 in the same buffer and supplemented with 20 μM ThT from a 2 mM stock. To each well in the 96-well plate was first added either 10 μl buffer (20 mM Tris/HCl pH 7.4) or 10 μl of Bri2(90-236) protein or control protein at ten times the desired final concentration in 20 mM Tris/HCl pH 7.4. To each well was then added 90 μl of the ice-cold Aβ monomer solution, and the plate was immediately placed in the plate reader at 37° C., with fluorescence read every 6 minutes with continuous shaking at 100 rpm between readings. Aβ1-40 was studied alone or with Bri2(90-236) at a concentration ranging from 60 nM to 6 μM. Aβ1-42 was studied alone or with Bri2(90-236) at a concentration ranging from 20 nM to 6 μM.

T1 sequence (P05067 672-713): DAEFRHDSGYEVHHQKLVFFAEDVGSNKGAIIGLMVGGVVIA

B1: Bri2(90-236): recombinant protein of residues 90-236 of human Bri2 (SEQ ID NO: 2), encompassing the Brichos domain, expressed in E. coli (protein, listed as Homo sapiens)
chain: GIKYIKDDVILNEPSADAPAALYQTIEENIKIFEEEEVEFISVPVPEFADSDPANIVHDFNKKLTAYLDLNLDKCYVIPLNTSIVMPPRNLLELLINIKAGTYLPQSYLIHEHMVITDRIENIDHLGFFIYRLCHDKETYKLQRRET
Aβ1-42; 3 μM Aβ1-42, molar ratio of 0.1 (1 Bri2(90-236) per 10 Aβ1-42), compared to the undisturbed case
  lag time of Aβ1-42 aggregation: doubled
Aβ1-42; 3 μM Aβ1-42, molar ratio of 0.1, compared to the undisturbed case
  half time of Aβ1-42 aggregation: doubled
Aβ1-40 [1]; 8 μM Aβ1-40, 800 nM Bri2(90-236) added anywhere during the lag time
  effect on Aβ1-40 aggregation process: can be delayed
Aβ1-40 [1]; 8 μM Aβ1-40, 800 nM Bri2(90-236) added at the end of the transition
  effect on Aβ1-40 aggregation process: no effect is seen
Aβ1-40 [1]; 8 μM Aβ1-40, 800 nM Bri2(90-236) added close to the mid point of the transition
  effect on Aβ1-40 aggregation process: reduce its speed and progress at lower rate
Aβ1-40 [1]; 8 μM Aβ1-40, 800 nM Bri2(90-236) added during the early part of the sigmoidal transition
  effect on Aβ1-40 aggregation process: appears to halt with no further growth of the ThT positive aggregates
Aβ1-40 [2]; 170 nM Bri2(90-236), relative to 6 μM Aβ1-40 alone
  prolongation of half time of Aβ1-40 aggregation: approximately 4.5 times
Aβ1-40 [2]; 0.01 or 0.03 molar equivalents of Bri2(90-236), far below equimolar
  lag time of Aβ1-40 aggregation: increases extensively
Aβ1-40 [2]; above a molar ratio of 0.1 (1 Bri2(90-236) per 10 Aβ1-40 molecules)
  lag time of Aβ1-40 aggregation: exceeds one week
Aβ1-40 [2]; in the presence of Bri2(90-236)
  elongation rate of Aβ1-40 aggregation: largely unaffected
